Experimental data reported in the nanobody polyreactivity screen of Harvey et al. (2022).

Experiment: yeast display, Sf9 membrane polyspecificity reagent, FACS + sequencing; frameworks hold sequencing errors
Summary of the method: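 Galactose-induced (36–48 hours) yeast carrying a synthetic nanobody display library were exposed to 10% biotinylated, detergent-solubilized Sf9 membrane reagent at 4 °C for 1 hour. FACS followed streptavidin microbead enrichment, using low and high (top ~1%) gates for expression (anti-HA) and reagent binding (streptavidin). Colony PCR, MiSeq 2 × 250 sequencing and CDR-length filtering followed. Labels for polyreactivity reflect the gate of origin.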

Question: For “QVQLVESGGGLVQAGGRLRLSCAASGSTFVGNAMGWYRQAPGKERELVAAIRKSGGRTYYADSVKGRFTISRDNAKNTVYLQMNSLKPEDTEVYYCAVDRLLYYLIYYRAGVEGGYWGQGTQVTVSS”, which “polyreactivity (PSR sort gate)” value is on record?
Answer: high polyreactivity

Question: With “QVQLVESGGGLVQAGGRLRLSCAASGSTFVYNAMGWYRPAPGKERELVAAISRSGGRTYYADSVKGRFTISRDNAKNSVYLQMNSLKPEDTAVYYCAVLLRGIEYDYWGQGTQVTVSS” as the sequence, how does the “polyreactivity (PSR sort gate)” value read?
Answer: high polyreactivity

Question: For “QVQLVESGGGLVQAGGRLRLSCAASGSTFYLNAMGWYRPAHGKERELVAAITRIGGSTYYADSVKGRFTISRDNAKNTVYLQMYSLTPEDTAVYYCAKDYGQARHDRYGYWGAGTQVTVSS”, which “polyreactivity (PSR sort gate)” value is on record?
Answer: low polyreactivity

Question: With “QVQLVESGGGLVQAGGRLRLSCAASGSTFYLNAMGWYRQAPGQERELVAAINGGGSTNYADSVKGRFTISRDNAKNTVYLQRNSLKPEDTAVYYCAAETSYANRDRFDYWGQGTQVTVSS” as the sequence, how does the “polyreactivity (PSR sort gate)” value read?
Answer: low polyreactivity

Question: For “QVQLVESGGGLVQAGGRLRLSCAASGSTLDTYAMGWYRQAPGKERELVAGITWSGGSTYYADSVKGRFTISRDNAKNTVYLQMNSLKPEDTAVYYCAAYSPYGPRYDYWGQGTQVTVSS”, which “polyreactivity (PSR sort gate)” value is on record?
Answer: low polyreactivity

Question: Which “polyreactivity (PSR sort gate)” value does the source give for “QVQLVESGGGLVQAGGRLRLSCAASGSTLGYYTMGWYRQAPGKERELVAANTRSGGSTYYADSVKGRFTISRDNAKNTVYLQMNSLKPEDTAVYYCAAAWTRFRIYDYWGQVTQVTVSS” here?
Answer: high polyreactivity

Question: Which “polyreactivity (PSR sort gate)” value does the source give for “QVQLVESGGGLVQAGGRLRLSCAASGSTLSANAMGWYSPAPGKERELVAAISRRSGGTYYADSVKGRFTISRDNAKNSVYLQMNSLKPEDTAVYYCIKVLKDPHTWGWVDYDYCGQGTQVTVSS” here?
Answer: high polyreactivity

Question: With “QVQLVESGGGLVQAGGRLRLSCAASGSTLYPNAMGWSRQAPGKDRELVAAISSGSSTYADSVKGRFTISRDNAKNTVYLQMNSLKPADTAVYYCNADAPIHYDYWGQGTQVTVSS” as the sequence, how does the “polyreactivity (PSR sort gate)” value read?
Answer: low polyreactivity

Question: Which “polyreactivity (PSR sort gate)” value does the source give for “QVQLVESGGGLVQAGGRLRLSCAASGYIFKSYVMGWYRQAPGKERELVAAITWSGGSTYYADSVKGRFTISRDNAKNTVYLQMNSLKPEDTAVYYCAAYPRRYRTTYDYWGQGTQVTVSS” here?
Answer: high polyreactivity

Question: Which “polyreactivity (PSR sort gate)” value does the source give for “QVQLVESGGGLVQAGGRLRLSCAASGYIFYYNAIGWYRQAPGKERELVAAITSDDSTYYADSVKGRFTISRDNAKNTVYLQMNSLKPEDTAVYYCNAVRYGHWYDYWGQGTQVTVSS” here?
Answer: low polyreactivity

Question: For “QVQLVESGGGLVQAGGRLRLSCAASGYTFEGYAMGWDRQAPGKERELVAAISRSGGRRYYADSVKGRFTISRDNAKNTVYLQMNSLKPEDTAVYYWAAGGYYQRTRGYWGQGTQVTVSS”, which “polyreactivity (PSR sort gate)” value is on record?
Answer: high polyreactivity

Question: Which “polyreactivity (PSR sort gate)” value does the source give for “QVQLVESGGGLVQAGGRLRLSCADSGFTFDANAMGWYRQAPGKEPELVAAISLSDGSTYYADSVKGRFTISRDNAKNTVYLQMNSLKPEDTAVYYCNAERFGSGLAWLLFDYWGQGTQVTVSS” here?
Answer: low polyreactivity

Question: Which “polyreactivity (PSR sort gate)” value does the source give for “QVQLVESGGGLVQAGGRLRLSCADSGRTFPLYVMGWYRQAPGKERELVAAISARGGSTYYADSVKGRFTISRDNAKNTVYLQMNSLKPEDTAVYYCATLVTNGRYDSWGQGTQVTVSS” here?
Answer: high polyreactivity

Question: For “QVQLVESGGGLVQAGGRLRLSCAPSGLIFQHNSMGWYRKATGKERELVASITWDGGSTYYADSVKGRFTISRDNAKNTVYLQMNSLKPEDTAVYYCAARFDSFWVEYDYWGQGTQVTVSS”, which “polyreactivity (PSR sort gate)” value is on record?
Answer: low polyreactivity

Question: For “QVQLVESGGGLVQAGGRLRLSCDASGITFISNTMGWSRQAPGKERELVAAISWTGGSTYYADSVKGRFTISRDNAKNTVYLQMNSQKPEDTAVYYCNAVRYYVYSTQYDYWGEGTQVTVSS”, which “polyreactivity (PSR sort gate)” value is on record?
Answer: high polyreactivity

Question: With “QVQLVESGGGLVQAGGRLRLSCDASGRIFTYNAMGWYRQAPGKERELVGAITFSGGGTYYADSVKGRFTISRDNAKNTVYLVMTSLKPEDTAVYYCNQVSFGYSTYGYWGQGTQVTVSS” as the sequence, how does the “polyreactivity (PSR sort gate)” value read?
Answer: low polyreactivity

Question: With “QVQLVESGGGLVQAGGRLRLSCDASGSTFVKYAMGWYRQAPGKERELVARISSSGGSTYYADSVKGRFTISRDNAKNTVFLQMNSLKPEDTAVYYCAAPSLIAKYDYWGQGTHVTVSS” as the sequence, how does the “polyreactivity (PSR sort gate)” value read?
Answer: high polyreactivity

Question: For “QVQLVESGGGLVQAGGRLRLSCVASGSIFSGNAMGWYRQARGKERELVAAITRSGTSTYYADSVKGRFTISRDNAKNTVYLQMNSVKPEDTAVYYCATQYGRQRRAMYYWGQGTQVTVTS”, which “polyreactivity (PSR sort gate)” value is on record?
Answer: high polyreactivity

Question: With “QVQLVESGGGLVQAGGRLRLSFAASGLTFWWYAMGWYRQAPGKERELVAAIDSADITNYADSVKGRFTISRDNAKNTVYLQMNSLKPEDTAVYYCAAGRDYYVVNYVLFLFDYWGQGTQVTVSS” as the sequence, how does the “polyreactivity (PSR sort gate)” value read?
Answer: high polyreactivity

Question: Which “polyreactivity (PSR sort gate)” value does the source give for “QVQLVESGGGLVQAGGRLRLSSAASGFTLVLNAMGWYIPAPGKERELVAAIRRSAGSTYYADSVKGRFTISRDNAKNTVYLQMNRLKPEDTAVYYCAAGFLWAKYAYGHWGQATQVTVSS” here?
Answer: low polyreactivity

Question: Which “polyreactivity (PSR sort gate)” value does the source give for “QVQLVESGGGLVQAGGRLRLSSAASGSTFHGYAMGWYRQEPGKERELVAAITSGDSTNYADSVKGRFTISRDNAKKTVYLQMNSLKPEDTAVYDCNAEGSSVLTGYWGYPPYWDTYVYWGQGTQVTVSA” here?
Answer: low polyreactivity

Question: Which “polyreactivity (PSR sort gate)” value does the source give for “QVQLVESGGGLVQAGGRLRLSSDASGLTFPTNAMGRYRQAHGKETEFVAAITSRGGTTYYADSVKGRFTISRDNAKNTVYLQMNSLKPEDTAVYYCAALSVTIYQSYRYGYWGQGTQVTVSS” here?
Answer: low polyreactivity

Question: With “QVQLVESGGGLVQAGGRLRLTCAASGITFTGNAMGWYRQAPGKERELVAVITSGGSTYYADSVKGRFTISRDNAKNTVYLQMNSLKPEDTAVYYCAAPVYYYYSKAMDYWGQGTQVTVSS” as the sequence, how does the “polyreactivity (PSR sort gate)” value read?
Answer: high polyreactivity

Question: Which “polyreactivity (PSR sort gate)” value does the source give for “QVQLVESGGGLVQAGGRLRLTCAASGLTFYSYAMRCYRQAPAKERELVAAISWTGGSTYYADSEKGRFTISRDNAKNTVYLQMNSLKPEDTAVYYCAAVDYWVSGDYYWGQGTQVTVSS” here?
Answer: high polyreactivity

Question: Which “polyreactivity (PSR sort gate)” value does the source give for “QVQLVESGGGLVQAGGRLRVSCAASGFTFNCYTMGGSRQAPGKERELVAAITWSGGSTYYADSVKGRFTISRDNAKNSVYLQMNSLIPEDTAVYYCAVYPYGSQYYALDYWGQGTQVTVSS” here?
Answer: high polyreactivity

Question: With “QVQLVESGGGLVQAGGRLRVSCAASGSTFAWYAMGWYRQAPGKERELVAAISSGGRTYYADSVKGRFTISRDNAKNTVDLQMNSLKREDTAVFSCNADDWAYGMDYWGQGSQVTVSS” as the sequence, how does the “polyreactivity (PSR sort gate)” value read?
Answer: low polyreactivity

Question: For “QVQLVESGGGLVQAGGRLSLSCAASGRTFYRYAMGWYRQAPGKDRELVAAISTRGGTTYYADSVKGRFTFSRDNAKNSVYLQMNSLKPEDTAVYYCAADSVYAEYDSWGQGTQVTVSS”, which “polyreactivity (PSR sort gate)” value is on record?
Answer: low polyreactivity

Question: For “QVQLVESGGGLVQAGGRLSLSCAASGSIFLYYAMGWYRQAPGKEREFVADISRSGGSTYYADSVKGRFTISRDNAKNTVYLQMNSLKPEDTAVYYCAASFYRYFVSLCYDYWGQGTQVSVSS”, which “polyreactivity (PSR sort gate)” value is on record?
Answer: high polyreactivity

Question: With “QVQLVESGGGLVQAGGRLSLSCAASGSIFRPNPMGWYRQAPGKERELVAAITWSGDSTYYADSVKGRFTISRDNAKNTVYLKMNSLKPEDTAVYYCAADFTYQGSSANDYWGQGTQVTVSS” as the sequence, how does the “polyreactivity (PSR sort gate)” value read?
Answer: low polyreactivity

Question: For “QVQLVESGGGLVQAGGRLSLSCSASGSIFEQKAMGWYRKAPGKEREFVATISDGGGTYYADSVKGRFTISRDNAKNTVYLQINSLKPEDNAVYYCAATFGGSVFVYDYWGQGTQVTLSS”, which “polyreactivity (PSR sort gate)” value is on record?
Answer: low polyreactivity

Question: Which “polyreactivity (PSR sort gate)” value does the source give for “QVQLVESGGGLVQAGGSFRLSCAASGSIFVVYDMGCYRQAPGKERELVAAITSGGSTYYADSVKGRFTISRDNAKNTVYLQMNSLKPEDTAVYYCAADSYEGYDYWGQGTQVTVSS” here?
Answer: low polyreactivity

Question: Which “polyreactivity (PSR sort gate)” value does the source give for “QVQLVESGGGLVQAGGSGRLSCAASGRIFAGYAMGWYIQAPGKERELVAAISSSGGSTYYSDSVKGRFTISRDNAKNSVYLQMNSLKPEDTAVYYCADRGKRNTPQRFYYWGQGTQVTVSS” here?
Answer: high polyreactivity

Question: With “QVQLVESGGGLVQAGGSHGLSCAASGRTFYYYAMGWYRPAPGKERELVAAITSGGRTYYADSVKGRFTISRDNAKNTDYLQMNRLKPEDTAVYYCAADLSDPDWSRYQWDMDYWGQGTQVTVSS” as the sequence, how does the “polyreactivity (PSR sort gate)” value read?
Answer: low polyreactivity

Question: For “QVQLVESGGGLVQAGGSHPLSCAASGRTFGHNAMRSYRQAPGKERELVAAITRSGGRTFYADSVKGRFTISRDNAMNTVYLQMNSLKPEDTAVFYCATDYYRYRDYAYYWLDYNYWGQGTQVTVSS”, which “polyreactivity (PSR sort gate)” value is on record?
Answer: high polyreactivity

Question: Which “polyreactivity (PSR sort gate)” value does the source give for “QVQLVESGGGLVQAGGSHRISCAASGRTLPSYAMGWYRQAPGKERELVAAISYSGASTYYADSVKGRFTISRDNAKNTVYLQMNSLKPQDTAVYYCAVYRTFRYRYDSWGQGTQVTVSS” here?
Answer: high polyreactivity

Question: With “QVQLVESGGGLVQAGGSHRLRCAASGRIFHVYAMGWYRQAPGKERELVAAISSGDRTYYADSVKGRFIISRDNAKNTVYLQMISLKPEDTAVYYCWRYPADESNYWGQGTQVTVSS” as the sequence, how does the “polyreactivity (PSR sort gate)” value read?
Answer: low polyreactivity

Question: For “QVQLVESGGGLVQAGGSHRLRCADSGFTFYSNAMGCYRQAPGKERELVASITWSGGNTYYADSVKGRFTISRDKAKTTVYLQMNSLKPEDTAVYYCAAGYSRDVQGYARAYRFYYWGQGTQVTVSS”, which “polyreactivity (PSR sort gate)” value is on record?
Answer: high polyreactivity

Question: Which “polyreactivity (PSR sort gate)” value does the source give for “QVQLVESGGGLVQAGGSHRLSCAASARILYRNAMGRYRQAPGKERELVAAITTRGTSTYYADSVKGRFTISRDNANNTVYLQMNSLKPEDTAVYYCNKVTRDLTQGYDYWGQGTQVTVSS” here?
Answer: high polyreactivity

Question: With “QVQLVESGGGLVQAGGSHRLSCAASGFIFVRNAMGWYRQAPGKERELVAAISSSGGSTNYADSVKGRFTISRDNAKNTVYLQMNSLKPEDTAVYYCNVVTFRYYYKYGYWGQGTQVTVSS” as the sequence, how does the “polyreactivity (PSR sort gate)” value read?
Answer: high polyreactivity

Question: With “QVQLVESGGGLVQAGGSHRLSCAASGFTFVNNALGWYRQPPGKEREFVAPISSDGGSTYYADSVKGRFTMSRDNAKNTVYLQMNSLKPEDTAVYYCAKVYPYRTYDTSYYHYHYDSWGQGTQVTVSS” as the sequence, how does the “polyreactivity (PSR sort gate)” value read?
Answer: low polyreactivity

Question: Which “polyreactivity (PSR sort gate)” value does the source give for “QVQLVESGGGLVQAGGSHRLSCAASGFTFVTYAMGWYRQAPGKERELVATISWGGGGTYYADSVKGRFTMSRDNAKNTVYFQLNSLKPEDTAVYYCAADNCYHYNFDYWGQGTQVTVSS” here?
Answer: low polyreactivity

Question: With “QVQLVESGGGLVQAGGSHRLSCAASGGIFYFNAMGWYRQAPGKERELVASITWSGGNTYYADSVKGRFTISRDNAKNTVYLQMNSLKPEDTAVYYCAADTQEYRPTYDYWGQGTQVTVSS” as the sequence, how does the “polyreactivity (PSR sort gate)” value read?
Answer: low polyreactivity

Question: Which “polyreactivity (PSR sort gate)” value does the source give for “QVQLVESGGGLVQAGGSHRLSCAASGIIFWRYAMGWYRQAPGKERELVAGITSRGGSTYYADSVKGRFTISRDNAKNTVYLQMNSLKPEDTAVYFCNADWFGQLWWGVDYWGQGTQVTVSS” here?
Answer: high polyreactivity
